Tests used:
[1] = biological target: T1, Bet v 1 (isoform not stated for the experiment) (birch, UniProt P15494); assay: ELISA; inhibition ELISA: binding of scFv-Fcε to immobilized Bet v 1 in the presence of the identified peptides in soluble form; settings: one partner purified
T1 construct: also called immobilized Bet v 1

[2] = biological target: T2, Recombinant Aln g 1.0101 (Alnus glutinosa, isoform Aln g 1.0101, UniProt P38948); assay: ELISA; allergens coated at 5 μg/mL in PBS; scFv-Fcε from HEK293 supernatant detected with HRP anti-IgE antiserum; duplicates; settings: one partner purified
T2 construct: By its allergen name from Alnus glutinosa (alder); source: bought: Biomay (Vienna, Austria), recombinant
T2 sequence (P38948 whole entry, looked up, canonical isoform): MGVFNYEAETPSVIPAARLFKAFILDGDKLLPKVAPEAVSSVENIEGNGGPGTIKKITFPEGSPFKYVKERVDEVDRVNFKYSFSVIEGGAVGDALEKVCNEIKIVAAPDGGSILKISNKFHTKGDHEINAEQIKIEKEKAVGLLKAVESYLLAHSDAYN

Row | binding result [1] | binding result [2] | Binder
1 | binds | – | B13 scFv-Fcε fusion protein (Fc fusion, as the VH of m12; as the VL of m12; also called B13 scFv-CHε2-4 fusion protein; source: HEK293, transfected, in filtered supernatant; not shown: Fc (human IgE, second, third and fourth constant domains, CHε2-4), C-terminal, kept) VH: not shown VL: SYELTQPPSVSGSPGQSVTISCTGTSSDVGGYNLVSWYQQHPGKAPRLMIYEDTKRPSGVSHRFSGSKSGNTASLTISGLQAEDEADYYCYSYATGRPSRLFGGGTKLTVL
2 | binds | – | B14 scFv-Fcε fusion protein (Fc fusion, human, as the VH of m13; as the VL of m13; also called B14 scFv-CHε2-4 fusion protein; source: HEK293, transfected, in filtered supernatant; not shown: Fc (human IgE, second, third and fourth constant domains, CHε2-4), C-terminal, kept) VH: EVQLVQSGAEVKKPGESLKISCKGSEYSFPNYWIAWVRQMPGKGLEWMGMIYPGDSDTRYSPSFQGQVNISADKSSRTAFLEWSSLKASDSATYFCARLGGQLWNSYYYYYMDVWGKGTTVTVSS VL: QSVLTQPPSVSVSPGQTARITCSGDKLGNKYAAWYQQKPGQSPVLVIYQDSKRPSGIPERFSGSNSGNTATLTISGTQAMDEADYYCQAWDSSTFYVFGTGTKLTVL
3 | binds | no binding | M0418 scFv-Fcε fusion protein (Fc fusion, human, as the VH of m14; (Gly4Ser)3 linker as told for the M0418 scFv construct, written out from the printed formula; as the VL of m14; also called the M0418 construct; IgE clone M0418; source: HEK293, transfected, in filtered supernatant; not shown: Fc (human IgE, second, third and fourth constant domains, CHε2-4), C-terminal, kept) VH: QVQLVQSGAEVKKPGESLKISCKGSEYSFPNYWIAWVRQMPGKGLEWMGMIYPGDSDTRYSPSFQGQVNISADKSSRTAFLEWSSLKASDSATYFCARLGGQLWNSYYYYYYMDVWGKGTTVTVSS VL: SYELTQPPSASGTPGQRVTISCSGSSSNIGGNTVNWYQQVPGTAPRLLIYKNNQRPSGVPDRFSGSKSGTSASLAISGLRSEDEADYYCEAWDGGLRGGVFGGGTKLTVL

— publication PMC4215112 (Clinical and Experimental Allergy, 2014)
